Experimental data from the supplement of paper PMC12764529.
± gives the half width of the 95% confidence interval.

How the values were obtained:
[1] = folding stability dG unfold from chymotrypsin proteolysis; higher = more stable
Experimental: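 Folding stability of de novo designed mini-proteins (<80 aa, no Cys; designed by TrROS, TrMRF, ProteinMPNN and the joint model) was measured by cDNA display proteolysis with trypsin and chymotrypsin. Each protease was used at 11 concentrations in a threefold dilution series plus a no-protease condition. K50 was inferred by Bayesian fitting of sequencing counts, and dG unfold was derived against a sequence-predicted unfolded-state K50 (Tsuboyama et al. method). Sequences shown include variable-length N-terminal GS-type padding (SAGGSAGG...) inside a display construct carrying a PA tag. Rows were kept only if the AF2 dimer inter-PAE was >15, to exclude likely homo-oligomers.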

[2] = folding stability dG unfold (combined trypsin and chymotrypsin); higher = more stable
Summary of the method: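 Designed mini-proteins (under 80 residues, no cysteine) in a PA-tagged cDNA display construct were digested with trypsin and chymotrypsin. Each protease was used at 11 concentrations (threefold dilutions) plus a no-protease condition, followed by sequencing. K50 was inferred by Bayesian fitting of sequencing counts, and unfolding free energy was derived against a sequence-predicted unfolded-state K50 and a shared folded-state K50, per protease or combined. Only designs with AlphaFold2 dimer inter-PAE above 15 were kept.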

Sequence | folding stability dG unfold [1] [kJ/mol] | folding stability dG unfold [2] [kJ/mol]
SAGGSAGGDHVQIEFPIWRMKEVERNPDNGEPRMDMEPIEITIWYPPDDPEKAKKIADEILDFISAGGSAGG [r6_280_TrROS] | 3.73 ± 0.586 | 1.71 ± 0.753
SAGGSAGGLTITLPNGATVTINEDDLEVVEVTFEPAPPAPPVRTETRTVTETRTVTTLAPGEEASAGGSAGG [r6_585_TrROS_Hall] | 3.92 ± 0.146 | 1.69 ± 0.46
SAGGSAGGMKKYTFDSGYEFEIDGATEEEAIEKLKEEGYPLPVKKITAEEVKPEPPPPFERNLKSAGGSAGG [r6_688_JUSTAS] | 0.456 ± 0.962 | -1.89 ± 1.21
SAGGSAGGMTVTVEIPLPPDVPIEEVKEKVKESGYPPTKIEYDPATGKATITLSPEAKEFLEKKSAGGSAGG [r6_307_JUSTAS] | -1.78 ± 0.46 | < -4.18
SAGGSAGGNNPPKTREIWIPPDDPDDLKDLKIDGPPGDTHHFRNPGGPYRITVTDGDPKVEPWGSAGGSAGG [r6_551_TrROS] | -1.26 ± 2.05 | < -4.18
SAGGSAGGPMKPVEYEIPLPGRPITIEVNPPYGYIDIEWPPNGKERTVPMSPGQSAEDILKELFSAGGSAGG [r6_166_TrROS] | -5.91 ± 1.34 | < -4.18
SAGGSAGGSAAVVVNATPDDGFTIYDPATGERLADAEVTKTNGDSLNLPHPDGRAVAVDPRKSAGGSAGGSA [r18_363_JUSTAS] | 0.966 ± 0.351 | -1.56 ± 1.97
SAGGSAGGSADEFVVVADLPEGGEARLLVLPLPDGSYLVAEAEAERHGDRTVLHVKVTPAESAGGSAGGSAG [r3_281_TrMRF] | 2.49 ± 0.46 | -0.384 ± 0.586
SAGGSAGGSADPAFEALARAEGVPVEVTREGDTLVVTARRPDPAGREVVEEFRVPVPPELLESAGGSAGGSA [r18_27_JUSTAS] | -0.728 ± 0.586 | < -4.18
SAGGSAGGSAGAEPLVREFEGRRIVLYREEDPGTARIEVFVGDKPYTVPLEYVPEELLLDSAGGSAGGSAGG [r11_152_TrMRF] | 3.26 ± 0.356 | 1.36 ± 0.222
SAGGSAGGSAGAVTVTLTGGPTLEIPIPDVPPEELGTPEVVARIEAIAAARGLTIASIRLSAGGSAGGSAGG [r11_467_JUSTAS] | -0.587 ± 0.586 | < -4.18
SAGGSAGGSAGDGDTMPFIMIHPDYLTINTWKFNPDGGLEIKSVKTIPLPPPKPSPDNKKSAGGSAGGSAGG [r11_843_TrROS] | -1.95 ± 1.88 | -2.01 ± 0.879
SAGGSAGGSAGDNGPLVIEVDISPDALADAVKNNKPLNANVRIYRPDGSPGGVFDLLIPASAGGSAGGSAGG [r11_26_TrMRF] | 0.909 ± 0.318 | -0.526 ± 0.502
SAGGSAGGSAGDVEVTEVTDANGNLTLTVKAKPATVTPNETVTVTLTVVNDDGETKTFELSAGGSAGGSAGG [r17_293_TrROS_Hall] | -0.78 ± 1.67 | -2.06 ± 1.72
SAGGSAGGSAGELPEGAKVEVREETFTRPDGYLVKRTEVRLEDTDELVTSEEVIEPGEEPSAGGSAGGSAGG [r11_338_TrROS_Hall] | 3.76 ± 0.36 | 1.58 ± 0.251
SAGGSAGGSAGEPKIKKKYIIPLKLKDPNTDKVYIANIEVDNKEEVPKIVKKLKDKGYLSSAGGSAGGSAGG [r11_668_TrMRF] | 1.47 ± 1.34 | -0.378 ± 1.67
SAGGSAGGSAGEWIPADYIRDFARNLGMPGKIDVERKEDGWFTIEIRNNGGPRKIQIPLDSAGGSAGGSAGG [r11_410_TrROS] | 0.04 ± 1.05 | -2.29 ± 1.59
SAGGSAGGSAGGAADAKVRLVLRTRTFDAVPGEERELPGDSWVYEVGDKAVALELLADPVSAGGSAGGSAGG [r7_506_TrMRF] | 3.75 ± 0.243 | 0.88 ± 0.347
SAGGSAGGSAGGAMDLPPSREAEIKLPNGETIRIFRPPDGSITLEFYDKGGKKTKIIPNSAGGSAGGSAGGS [r10_150_JUSTAS] | -0.517 ± 0.711 | < -4.18
SAGGSAGGSAGGAVERFPGPATVTALPDGRRLVTTTDPSGRPTLTLLEVETPERVTAHPASAGGSAGGSAGG [r7_423_JUSTAS] | 1.2 ± 0.159 | -2.78 ± 0.837
SAGGSAGGSAGGDEIAKQIAEHFREKGLDKNREIEIRNPENGEKITVRYTPEGGDFEVEPSAGGSAGGSAGG [r7_301_TrROS] | -0.239 ± 0.711 | < -4.18

Sequence | folding stability dG unfold [1] [kJ/mol] | folding stability dG unfold [2] [kJ/mol]
SAGGSAGGSAGGDPDGKPPPKIEFEMETVPIPNPDGQALEIEIFRIKGNGMLFIMIEPYSAGGSAGGSAGGS [r10_1137_TrROS] | 17.6 ± 1.21 | 18.7 ± 3.51
SAGGSAGGSAGGEPEPIPIKVKIYNPEDGKKREVDFWIPYGNIKEVLKELMPKGYKVEIESAGGSAGGSAGG [r7_230_TrROS] | -1.18 ± 0.962 | -2.12 ± 1.38
SAGGSAGGSAGGGKVTVYTDPKGGVVITTTETPDSITATVVDPSGKTTTVTVPPGAPLLSAGGSAGGSAGGS [r10_976_JUSTAS] | 1.02 ± 0.753 | -0.766 ± 1.59
SAGGSAGGSAGGGMDEEETVELDLTTKGTDPAEVEAARAARAEELGLPLADVRVRVSAESAGGSAGGSAGGS [r10_401_JUSTAS] | -1.05 ± 0.151 | < -4.18
SAGGSAGGSAGGGMITFSSESVEEFGSVTPVNVVRRVTRYTTKVGDTIIETTEEEVVPLESAGGSAGGSAGG [r7_248_JUSTAS] | -0.205 ± 1.67 | -1.54 ± 1.17
SAGGSAGGSAGGGMPYPIKTEVEIKKNGPNISTTETVYRPDGTKIETKKYKIPKKELKKKSAGGSAGGSAGG [r7_602_JUSTAS] | 0.643 ± 1.17 | < -4.18
SAGGSAGGSAGGGPEVEVETETLPTADGRPVRLVRARVPTREYLFLVSPDGEILRRIPVSAGGSAGGSAGGS [r10_97_TrMRF] | 1.39 ± 0.669 | -1.39 ± 0.92
SAGGSAGGSAGGGSMILNVRTVVEEDFPINDRRKVTVLDPVVLVPAVAFDPSTGKATPVSAGGSAGGSAGGS [r10_815_JUSTAS] | 2.79 ± 0.356 | 1.25 ± 0.347
SAGGSAGGSAGGGSMTKIGNGYLRYTLPGDTVVIYDPSTGTTQTLPVSNPVPVELPPNIPSAGGSAGGSAGG [r7_299_JUSTAS] | 2.81 ± 0.13 | 0.872 ± 0.238
SAGGSAGGSAGGHPVLLTVPRRYTYLLPGTAPRTVTVPVPVVVEVDDPEVALRLARELEGSAGGSAGGSAGG [r7_21_TrMRF] | -1.46 ± 3.05 | < -4.18
SAGGSAGGSAGGKKEREFKFPGAPIQAPVERNPANGKLKIDVEVTGDNPDWAKRLADAFSAGGSAGGSAGGS [r10_582_TrROS] | -2.15 ± 2.34 | < -4.18
SAGGSAGGSAGGKTYYVTGKLYLKDKPRVIEVKLPYPSELEEEAPERVKKLAEELAKEESAGGSAGGSAGGS [r10_313_TrMRF] | -1.65 ± 1.59 | < -4.18
SAGGSAGGSAGGMDEPVSLPVRKPILSPGSPEEAEARAAELKAPGVEVDAVPRDAAGRLESAGGSAGGSAGG [r11_703_JUSTAS] | 3.19 ± 0.155 | 0.527 ± 0.544
SAGGSAGGSAGGMFYIKIPNGKQFPFKSKEEFKDQLRERNGRPMKIKDIEIQPLDPNQFSAGGSAGGSAGGS [r10_62_TrROS] | 2.45 ± 1.09 | -0.371 ± 1.34
SAGGSAGGSAGGMIDIPISPEIAENVPPGATVEVEILRDDGRIERLKVKVEDFEPVLPGGSAGGSAGGSAGG [r7_732_TrMRF] | 1.29 ± 0.184 | 0.263 ± 1.09
SAGGSAGGSAGGMIWIPESELSKLPESFKNFKILKKTPLTLPHPSKKNKPVVLVEIEKKESAGGSAGGSAGG [r7_237_JUSTAS] | 2.91 ± 0.962 | 0.51 ± 2.22
SAGGSAGGSAGGMLSPEVGLPEVPVTLTDPTNDKVYTITVPPDTNPAEVAAALGVALLLSAGGSAGGSAGGS [r10_202_JUSTAS] | 2.93 ± 0.962 | -0.993 ± 1.59
SAGGSAGGSAGGMLVTETKPLPTPRTVATVVLLSTEEAPLPSGVLVRRETTEVKLVELISAGGSAGGSAGGS [r10_718_JUSTAS] | -2.11 ± 2.55 | < -4.18
SAGGSAGGSAGGMPPEETVTVTIVESKPVPDPEGNPVEPLPVKTTTITVPASNPEALAAKSAGGSAGGSAGG [r7_439_JUSTAS] | 0.0274 ± 0.301 | -2.04 ± 0.879
SAGGSAGGSAGGMPVSVETKLIEKDPVEDVEISLETFPGTDLRVIVTKTKNEVKKTVIPKSAGGSAGGSAGG [r17_370_JUSTAS] | -1.06 ± 0.544 | -3.01 ± 2.13
SAGGSAGGSAGGMSAEEVREIVEELGFDDPTEVVVLDLPDGRRVLVTNPPDGLRLEVLDSAGGSAGGSAGGS [r10_604_TrMRF] | 4.05 ± 0.222 | 2.35 ± 0.502
